Patent US20230365698A1, “ANTI-IFNAR1 DOSING REGIME FOR SUBCUTANEOUS INJECTION” (published 2023)

Experiments:
[1] = biological target: T1, subunit 1 of the type I interferon receptor (IFNAR1), in patients (human, UniProt P17181); assay: cell-based or functional assay
T1 sequence: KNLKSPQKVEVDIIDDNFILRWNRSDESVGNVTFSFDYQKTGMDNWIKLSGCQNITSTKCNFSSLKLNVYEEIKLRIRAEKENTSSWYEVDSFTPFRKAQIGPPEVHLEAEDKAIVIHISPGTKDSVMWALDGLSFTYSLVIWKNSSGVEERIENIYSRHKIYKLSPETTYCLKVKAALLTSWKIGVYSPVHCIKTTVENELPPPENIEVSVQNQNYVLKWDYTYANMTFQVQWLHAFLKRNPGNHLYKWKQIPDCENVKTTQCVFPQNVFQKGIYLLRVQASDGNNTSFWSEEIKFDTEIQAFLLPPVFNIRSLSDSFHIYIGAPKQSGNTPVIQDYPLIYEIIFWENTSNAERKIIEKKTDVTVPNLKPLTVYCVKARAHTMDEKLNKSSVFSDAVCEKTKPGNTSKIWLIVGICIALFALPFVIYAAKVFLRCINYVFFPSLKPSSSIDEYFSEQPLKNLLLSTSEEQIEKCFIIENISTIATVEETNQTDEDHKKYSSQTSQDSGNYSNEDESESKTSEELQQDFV

[2] = biological target: T1, subunit 1 of the type I interferon …; assay: cell-based or functional assay; remark: listed apart in the source

B1: Anifrolumab (antibody, V domains shown)
VH: EVQLVQSGAEVKKPGESLKISCKGSGYIFTNYWIAWVRQMPGKGLESMGIIYPGDSDIRYSPSFQGQVTISADKSITTAYLQWSSLKASDTAMYYCARHDIEGFDYWGRGTLVTVSS
VL: EIVLTQSPGTLSLSPGERATLSCRASQSVSSSFFAWYQQKPGQAPRLLIYGASSRATGIPDRLSGSGSGTDFTLTITRLEPEDFAVYYCQQYDSSAITFGQGTRLEIKR
- IC80: approximate anifrolumab concentration required to produce 80% of the maximum inhibition of the 21-IFNGS expression relative to baseline (PK/PD model estimate) [1]: 3.88 µg/mL
- IC50 (nM): anifrolumab concentration required to produce 50% of the maximum inhibition of the 21-IFNGS expression relative to baseline (PK/PD model estimate from TULIP-1 and TULIP-2 data) [2]: 6.56 nM
